According to patent US20230140293A1:

Assays:
Test in all cases: cell-based or functional assay
[1] = target: CH0505.w4.3 Env, Env-pseudotyped virus produced in 293T cells (HIV-1)
[2] = target: CH0505TF Env, Env-pseudotyped virus produced in 293S GnTI- cells (Man5-enriched) (HIV-1)
[3] = target: CH0505TF Env, Env-pseudotyped virus produced in 293T cells (HIV-1)
[4] = target: CH0505TF.G458Y Env, Env-pseudotyped virus produced in 293S GnTI- cells (Man5-enriched) (HIV-1)
[5] = target: CH0505TF.G458Y Env, Env-pseudotyped virus produced in 293T cells (HIV-1)
[6] = target: CH0505TF.gly3.197 Env, Env-pseudotyped virus produced in 293S GnTI- cells (Man5-enriched) (HIV-1)
[7] = target: CH0505TF.gly3.197 Env, Env-pseudotyped virus produced in 293T cells (HIV-1)
[8] = target: CH0505TF.gly3.276 Env, Env-pseudotyped virus produced in 293S GnTI- cells (Man5-enriched) (HIV-1)
[9] = target: CH0505TF.gly3.276 Env, Env-pseudotyped virus produced in 293T cells (HIV-1)
[10] = target: CH0505TF.gly3.461 Env, Env-pseudotyped virus produced in 293S GnTI- cells (Man5-enriched) (HIV-1)
[11] = target: CH0505TF.gly3.461 Env, Env-pseudotyped virus produced in 293T cells (HIV-1)
[12] = target: CH0505TF.gly4 Env, Env-pseudotyped virus produced in 293S GnTI- cells (Man5-enriched) (HIV-1)
[13] = target: CH0505TF.gly4 Env, Env-pseudotyped virus produced in 293T cells (HIV-1)
[14] = target: HIV-1 426c.DM (N460D/N463D) Env on Env-pseudotyped virus produced in 293T cells (HIV-1)
[15] = target: HIV-1 426c.DM (N460D/N463D) Env on Env-pseudotyped virus produced in 293s/GnTI-/- cells (Man5-enrichment) (HIV-1)
[16] = target: HIV-1 426c.SM (N276D) Env on Env-pseudotyped virus produced in 293T cells (HIV-1)
[17] = target: HIV-1 426c.SM (N276D) Env on Env-pseudotyped virus produced in 293s/GnTI-/- cells (Man5-enrichment) (HIV-1)
[18] = target: HIV-1 426c.TM (N276D/N460D/N463D) Env on Env-pseudotyped virus produced in 293T cells (HIV-1)
[19] = target: HIV-1 426c.TM (N276D/N460D/N463D) Env on Env-pseudotyped virus produced in 293s/GnTI-/- cells (Man5-enrichment) (HIV-1)
[20] = target: HIV-1 Env 426c, Env-pseudotyped virus produced in 293S GnTI- cells (Man5-enriched) (HIV-1 clade C strain 426c)
[21] = target: HIV-1 Env 426c, Env-pseudotyped virus produced in 293T cells (HIV-1 clade C strain 426c)
[22] = target: HIV-1 Env 426c.DM (N460D.N463D), Env-pseudotyped virus produced in 293S GnTI- cells (Man5-enriched) (HIV-1 clade C strain 426c)
[23] = target: HIV-1 Env 426c.DM (N460D.N463D), Env-pseudotyped virus produced in 293T cells (HIV-1 clade C strain 426c)
[24] = target: HIV-1 Env 426c.SM (N276D), Env-pseudotyped virus produced in 293S GnTI- cells (Man5-enriched) (HIV-1 clade C strain 426c)
[25] = target: HIV-1 Env 426c.SM (N276D), Env-pseudotyped virus produced in 293T cells (HIV-1 clade C strain 426c)
[26] = target: HIV-1 Env 426c.TM (N276D.N460D.N463D), Env-pseudotyped virus produced in 293S GnTI- cells (Man5-enriched) (HIV-1 clade C strain 426c)
[27] = target: HIV-1 Env 426c.TM (N276D.N460D.N463D), Env-pseudotyped virus produced in 293T cells (HIV-1 clade C strain 426c)
[28] = target: HIV-1 Env 426c.TM4 (S278R.G471S.N460D.N463D), Env-pseudotyped virus produced in 293S GnTI- cells (Man5-enriched) (HIV-1 clade C strain 426c)
[29] = target: HIV-1 Env 426c.TM4 (S278R.G471S.N460D.N463D), Env-pseudotyped virus produced in 293T cells (HIV-1 clade C strain 426c)
[30] = target: HIV-1 clade C strain 426c Env on Env-pseudotyped virus produced in 293T cells (HIV-1)
[31] = target: HIV-1 clade C strain 426c Env on Env-pseudotyped virus produced in 293s/GnTI-/- cells (Man5-enrichment) (HIV-1)

Row | Substance | IC50 (µg/ml) in TZM-bl [1] [µg/mL] | IC50 (µg/ml) in TZM-bl [2] [µg/mL] | IC50 (µg/ml) in TZM-bl [3] [µg/mL] | IC50 (µg/ml) in TZM-bl [4] [µg/mL] | IC50 (µg/ml) in TZM-bl [5] [µg/mL] | IC50 (µg/ml) in TZM-bl [6] [µg/mL] | IC50 (µg/ml) in TZM-bl [7] [µg/mL] | IC50 (µg/ml) in TZM-bl [8] [µg/mL] | IC50 (µg/ml) in TZM-bl [9] [µg/mL] | IC50 (µg/ml) in TZM-bl [10] [µg/mL] | IC50 (µg/ml) in TZM-bl [11] [µg/mL] | IC50 (µg/ml) in TZM-bl [12] [µg/mL] | IC50 (µg/ml) in TZM-bl [13] [µg/mL] | ID50/IC50 in TZM-bl [14] [µg/mL] | ID50/IC50 in TZM-bl [15] [µg/mL] | ID50/IC50 in TZM-bl [16] [µg/mL] | ID50/IC50 in TZM-bl [17] [µg/mL] | ID50/IC50 in TZM-bl [18] [µg/mL] | ID50/IC50 in TZM-bl [19] [µg/mL] | IC50 (µg/ml) in TZM-bl [20] [µg/mL] | also measured
1 | CH01 (antibody) | > 20 | 0.8 | 4.1 | 0.1 | 1 | 0.22 | 3.8 | 1 | 5.7 | 0.09 | 7.7 | 0.1 | 8.8 | > 25 | > 25 | > 25 | > 25 | > 25 | > 25 | > 25 | IC50 (µg/ml) in TZM-bl [21]: > 25 µg/mL; IC50 (µg/ml) in TZM-bl [22]: > 25 µg/mL; IC50 (µg/ml) in TZM-bl [23]: > 25 µg/mL; IC50 (µg/ml) in TZM-bl [24]: > 25 µg/mL; IC50 (µg/ml) in TZM-bl [25]: > 25 µg/mL; IC50 (µg/ml) in TZM-bl [26]: > 25 µg/mL; IC50 (µg/ml) in TZM-bl [27]: > 25 µg/mL; IC50 (µg/ml) in TZM-bl [28]: > 25 µg/mL; IC50 (µg/ml) in TZM-bl [29]: > 25 µg/mL; ID50/IC50 in TZM-bl [30]: > 25 µg/mL; ID50/IC50 in TZM-bl [31]: > 25 µg/mL
2 | DH511.2_K3 (antibody) | 0.02 | 0.95 | 3.4 | 1.2 | 0.6 | 2.5 | 3.1 | 1.7 | 2.9 | 1.6 | 2.8 | 1.1 | 2.1 | 1.5 | 0.75 | 0.77 | 0.87 | 1.06 | 1.2 | 0.85 | IC50 (µg/ml) in TZM-bl [21]: 0.8 µg/mL; IC50 (µg/ml) in TZM-bl [22]: 0.75 µg/mL; IC50 (µg/ml) in TZM-bl [23]: 1.5 µg/mL; IC50 (µg/ml) in TZM-bl [24]: 0.87 µg/mL; IC50 (µg/ml) in TZM-bl [25]: 0.77 µg/mL; IC50 (µg/ml) in TZM-bl [26]: 1.2 µg/mL; IC50 (µg/ml) in TZM-bl [27]: 1.06 µg/mL; IC50 (µg/ml) in TZM-bl [28]: 0.56 µg/mL; IC50 (µg/ml) in TZM-bl [29]: 0.56 µg/mL; ID50/IC50 in TZM-bl [30]: 0.8 µg/mL; ID50/IC50 in TZM-bl [31]: 0.85 µg/mL
3 | F105 (antibody) | 10.8 | > 25 | > 25 | > 25 | > 25 | > 25 | > 25 | > 25 | > 25 | > 25 | > 25 | > 25 | > 25 | > 25 | > 25 | > 25 | > 25 | > 25 | > 25 | > 25 | IC50 (µg/ml) in TZM-bl [21]: > 25 µg/mL; IC50 (µg/ml) in TZM-bl [22]: > 25 µg/mL; IC50 (µg/ml) in TZM-bl [23]: > 25 µg/mL; IC50 (µg/ml) in TZM-bl [24]: > 25 µg/mL; IC50 (µg/ml) in TZM-bl [25]: > 25 µg/mL; IC50 (µg/ml) in TZM-bl [26]: > 25 µg/mL; IC50 (µg/ml) in TZM-bl [27]: > 25 µg/mL; IC50 (µg/ml) in TZM-bl [28]: > 25 µg/mL; IC50 (µg/ml) in TZM-bl [29]: > 25 µg/mL; ID50/IC50 in TZM-bl [30]: > 25 µg/mL; ID50/IC50 in TZM-bl [31]: > 25 µg/mL
4 | HJ16 (antibody) | > 25 | > 25 | > 25 | > 25 | > 25 | > 25 | > 25 | > 25 | > 25 | > 25 | > 25 | > 25 | > 25 | > 25 | > 25 | > 25 | > 25 | > 25 | > 25 | > 25 | IC50 (µg/ml) in TZM-bl [21]: > 25 µg/mL; IC50 (µg/ml) in TZM-bl [22]: > 25 µg/mL; IC50 (µg/ml) in TZM-bl [23]: > 25 µg/mL; IC50 (µg/ml) in TZM-bl [24]: > 25 µg/mL; IC50 (µg/ml) in TZM-bl [25]: > 25 µg/mL; IC50 (µg/ml) in TZM-bl [26]: > 25 µg/mL; IC50 (µg/ml) in TZM-bl [27]: > 25 µg/mL; IC50 (µg/ml) in TZM-bl [28]: > 25 µg/mL; IC50 (µg/ml) in TZM-bl [29]: > 25 µg/mL; ID50/IC50 in TZM-bl [30]: > 25 µg/mL; ID50/IC50 in TZM-bl [31]: > 25 µg/mL
5 | PG9 (antibody) | 1.8 | 0.11 | 0.19 | 0.04 | 0.1 | 0.06 | 0.24 | 0.04 | 0.17 | 0.05 | 0.22 | 0.02 | 0.21 | > 5 | > 5 | > 5 | > 5 | > 5 | > 5 | > 5 | IC50 (µg/ml) in TZM-bl [21]: > 5 µg/mL; IC50 (µg/ml) in TZM-bl [22]: > 5 µg/mL; IC50 (µg/ml) in TZM-bl [23]: > 5 µg/mL; IC50 (µg/ml) in TZM-bl [24]: > 5 µg/mL; IC50 (µg/ml) in TZM-bl [25]: > 5 µg/mL; IC50 (µg/ml) in TZM-bl [26]: > 5 µg/mL; IC50 (µg/ml) in TZM-bl [27]: > 5 µg/mL; IC50 (µg/ml) in TZM-bl [28]: > 5 µg/mL; IC50 (µg/ml) in TZM-bl [29]: > 5 µg/mL; ID50/IC50 in TZM-bl [30]: > 5 µg/mL; ID50/IC50 in TZM-bl [31]: > 5 µg/mL
6 | PG16 (antibody) | 0.03 | 0.08 | 0.09 | 0.01 | 0.03 | 0.03 | 0.05 | 0.02 | 0.1 | 0.02 | 0.1 | 0.02 | 0.1 | > 5 | > 5 | > 5 | > 5 | > 5 | > 5 | > 5 | IC50 (µg/ml) in TZM-bl [21]: > 5 µg/mL; IC50 (µg/ml) in TZM-bl [22]: > 5 µg/mL; IC50 (µg/ml) in TZM-bl [23]: > 5 µg/mL; IC50 (µg/ml) in TZM-bl [24]: > 5 µg/mL; IC50 (µg/ml) in TZM-bl [25]: > 5 µg/mL; IC50 (µg/ml) in TZM-bl [26]: > 5 µg/mL; IC50 (µg/ml) in TZM-bl [27]: > 5 µg/mL; IC50 (µg/ml) in TZM-bl [28]: > 5 µg/mL; IC50 (µg/ml) in TZM-bl [29]: > 5 µg/mL; ID50/IC50 in TZM-bl [30]: > 5 µg/mL; ID50/IC50 in TZM-bl [31]: > 5 µg/mL
